{
  "source": "paper PMC10998826",
  "about": "(EJNMMI Research, 2024)",
  "key": {"[1]": {"assay": "In-vivo stability in blood (radio-HPLC of plasma, % intact peptide)", "set-up": "species or system humans", "conditions": "for Stability (% of initial signal): in-vivo, plasma radio-HPLC", "protocol": "Patients were allowed a light breakfast at the day of each infusion. […] Entresto® was given at an oral dose of 100 mg, containing 48.6 mg sacubitril and 51.4 mg valsartan 2 h before the start of one of the two infusions. Vital signs were recorded, and a 12-lead electrocardiogram was obtained before and after each injection. Adverse events were recorded and graded according to Common Terminology Criteria for Adverse Events (CTCAE) version 4.03.\nBlood samples were collected in polypropylene tubes containing ethylenediaminetetraacetic acid at 5, 15, 30 and 60 min after administration of ^177Lu-PP-F11N. The tubes were placed on ice. Plasma was separated by centrifugation (4000 g for 10 min) and protein precipitation followed using cold methanol (v/v 1/2). The mixture was stirred to favor precipitation of proteins and then centrifuged at 4000 g for 10 min. The supernatant was collected and filtered through a […] filter (Millex®-GV, Merck Millipore, Bedford, MA, USA). The clear solution was diluted with H2O (1:1) and then analyzed by radio-high performance liquid chromatography (HPLC) to determine the percentage of intact peptide over time. HPLCs were performed on the Agilent 1260 infinity instrument (Agilent, Santa Clara, United States) connected to a GABI radioactivity-HPLC-flow-monitor γ-spectrometer (Elysia-raytest, Straubenhardt, Germany)."}, "[2]": {"assay": "Bone marrow dosimetry", "assay_type": "in vivo, humans", "conditions": "for Bone marrow dose: median", "protocol": "Bone marrow and kidney dosimetry was performed as described before."}},
  "data": [
    {"smiles": "CSCC[C@H](NC(=O)[C@H](Cc1c[nH]c2ccccc12)NC(=O)CNC(=O)[C@H](Cc1ccc(O)cc1)NC(=O)[C@H](C)NC(=O)[C@@H](CCC(=O)O)NC(=O)[C@@H](CCC(=O)O)NC(=O)[C@@H](CCC(=O)O)NC(=O)[C@@H](CCC(=O)O)NC(=O)[C@@H](CCC(=O)O)NC(=O)[C@@H](CCC(=O)O)NC(=O)CN1CCN(CC(=O)O)CCN(CC(=O)O)CCN(CC(=O)O)CC1)C(=O)N[C@@H](CC(=O)O)C(=O)N[C@@H](Cc1ccccc1)C(N)=O", "note": "[[^177Lu]Lu-PP-F11N, [^177Lu]Lu-DOTA-(DGlu)6-Ala-Tyr-Gly-Trp-Met-Asp-Phe-NH2, metal not drawn]", "values": [
      {"measurement": "Median stability with Entresto premedication compared to without", "setting": "[1]; 5 min p.i.", "result": 1.1, "unit": "fold"},
      {"measurement": "Median stability with Entresto premedication compared to without", "setting": "[1]; 15 min p.i.", "result": 1.1, "unit": "fold"},
      {"measurement": "Median stability with Entresto premedication compared to without", "setting": "[1]; 30 min p.i.", "result": 1.2, "unit": "fold"},
      {"measurement": "Median stability with Entresto premedication compared to without", "setting": "[1]; 60 min p.i.", "result": 1.6, "unit": "fold"},
      {"measurement": "Stability (% of initial signal)", "setting": "[1]; 5 min p.i., with Entresto premedication (100 mg oral, 2 h before), median of patients", "result": 99.5, "unit": "%"},
      {"measurement": "Stability (% of initial signal)", "setting": "[1]; 5 min p.i., without Entresto premedication, median of patients", "result": 94.1, "unit": "%"},
      {"measurement": "Stability (% of initial signal)", "setting": "[1]; 15 min p.i., with Entresto premedication (100 mg oral, 2 h before), median of patients", "result": 92.1, "unit": "%"},
      {"measurement": "Stability (% of initial signal)", "setting": "[1]; 15 min p.i., without Entresto premedication, median of patients", "result": 80.3, "unit": "%"},
      {"measurement": "Stability (% of initial signal)", "setting": "[1]; 15 min p.i., without Entresto premedication, patient 1", "result": 69.9, "unit": "%"},
      {"measurement": "Stability (% of initial signal)", "setting": "[1]; 15 min p.i., without Entresto premedication, patient 2", "result": 80.3, "unit": "%"},
      {"measurement": "Stability (% of initial signal)", "setting": "[1]; 15 min p.i., without Entresto premedication, patient 3", "result": 91.4, "unit": "%"},
      {"measurement": "Stability (% of initial signal)", "setting": "[1]; 15 min p.i., without Entresto premedication, patient 4", "result": 90.5, "unit": "%"},
      {"measurement": "Stability (% of initial signal)", "setting": "[1]; 15 min p.i., without Entresto premedication, patient 5", "result": 88.8, "unit": "%"},
      {"measurement": "Stability (% of initial signal)", "setting": "[1]; 15 min p.i., without Entresto premedication, patient 6", "result": 90.2, "unit": "%"},
      {"measurement": "Stability (% of initial signal)", "setting": "[1]; 15 min p.i., without Entresto premedication, patient 7", "result": 71.4, "unit": "%"},
      {"measurement": "Stability (% of initial signal)", "setting": "[1]; 15 min p.i., without Entresto premedication, patient 8", "result": 68.1, "unit": "%"},
      {"measurement": "Stability (% of initial signal)", "setting": "[1]; 30 min p.i., with Entresto premedication (100 mg oral, 2 h before), median of patients", "result": 78.5, "unit": "%"},
      {"measurement": "Stability (% of initial signal)", "setting": "[1]; 30 min p.i., with Entresto premedication (100 mg oral, 2 h before), patient 1", "result": 78.5, "unit": "%"},
      {"measurement": "Stability (% of initial signal)", "setting": "[1]; 30 min p.i., with Entresto premedication (100 mg oral, 2 h before), patient 2", "result": 85.7, "unit": "%"},
      {"measurement": "Stability (% of initial signal)", "setting": "[1]; 30 min p.i., with Entresto premedication (100 mg oral, 2 h before), patient 3", "result": 80.6, "unit": "%"},
      {"measurement": "Stability (% of initial signal)", "setting": "[1]; 30 min p.i., with Entresto premedication (100 mg oral, 2 h before), patient 5", "result": 85.5, "unit": "%"},
      {"measurement": "Stability (% of initial signal)", "setting": "[1]; 30 min p.i., with Entresto premedication (100 mg oral, 2 h before), patient 6", "result": 77.9, "unit": "%"},
      {"measurement": "Stability (% of initial signal)", "setting": "[1]; 30 min p.i., with Entresto premedication (100 mg oral, 2 h before), patient 7", "result": 75.3, "unit": "%"},
      {"measurement": "Stability (% of initial signal)", "setting": "[1]; 30 min p.i., with Entresto premedication (100 mg oral, 2 h before), patient 8", "result": 79.9, "unit": "%"},
      {"measurement": "Stability (% of initial signal)", "setting": "[1]; 30 min p.i., without Entresto premedication, median of patients", "result": 64.5, "unit": "%"},
      {"measurement": "Stability (% of initial signal)", "setting": "[1]; 30 min p.i., without Entresto premedication, patient 1", "result": 64.5, "unit": "%"},
      {"measurement": "Stability (% of initial signal)", "setting": "[1]; 30 min p.i., without Entresto premedication, patient 2", "result": 72.3, "unit": "%"},
      {"measurement": "Stability (% of initial signal)", "setting": "[1]; 30 min p.i., without Entresto premedication, patient 3", "result": 74.8, "unit": "%"},
      {"measurement": "Stability (% of initial signal)", "setting": "[1]; 30 min p.i., without Entresto premedication, patient 4", "result": 67.6, "unit": "%"},
      {"measurement": "Stability (% of initial signal)", "setting": "[1]; 30 min p.i., without Entresto premedication, patient 6", "result": 60.3, "unit": "%"},
      {"measurement": "Stability (% of initial signal)", "setting": "[1]; 30 min p.i., without Entresto premedication, patient 7", "result": 50.1, "unit": "%"},
      {"measurement": "Stability (% of initial signal)", "setting": "[1]; 60 min p.i., with Entresto premedication (100 mg oral, 2 h before), median of patients", "result": 64.15, "unit": "%"},
      {"measurement": "Stability (% of initial signal)", "setting": "[1]; 60 min p.i., without Entresto premedication, median of patients", "result": 41.1, "unit": "%"},
      {"measurement": "Median absorbed dose of bone marrow after premedication compared to without", "setting": "[2]; Entresto premedication, eight patients", "result": 1.4, "unit": "fold"},
      {"measurement": "Bone marrow dose", "setting": "[2]; with Entresto premedication", "result": 0.05, "unit": "Gy/GBq"},
      {"measurement": "Bone marrow dose", "setting": "[2]; without Entresto premedication", "result": 0.03, "unit": "Gy/GBq"}
    ]}
  ]
}
